PMC11574021, “CEP192 localises mitotic Aurora-A activity by priming its interaction with TPX2” (The EMBO Journal, 2024)
Numbering of substitutions follows the chain as printed. One block for each molecule: values may come before it.

Key:
[1] = target: Aurora-A; settings: from fluorescence polarisation; ref (Burgess et al, [2015]; McIntyre et al, [2017]; Zorba et al, [2014]); cited from earlier work
Description: This is a higher affinity than observed in a previous study that used CEP192 proteins fused to MBP, a large protein tag that might have affected the interaction (Park et al, [2023]). For context, the affinity of Aurora-A for its other key mitotic partners are: TPX2_1-43 (Kd 0.3–2 μM from ITC) and TACC ...

[2] = test system: Aurora-A-pT288 in U251 cells; test: Western blot densitometry of Aurora-A-pT288, mitotic U251 cells; assay type: cell-based, Homo sapiens; settings: mitotic U251 (and RPE1) lysates, siRNA 48 h, in words
Description: For western blotting analysis of mitotic lysates, cells were synchronised in mitosis with 10 µM S-Trityl-L-cysteine (STLC, Bio-Techne, 2191-50), an Eg5 inhibitor, for 20 h prior to collecting by mitotic shake-off. For measuring monopolar spindle diameter and counting centriolar foci by immunofluorescence, cells were treated with 10 µM STLC for 1 h and 4 h prior to fixation, respectively.
As noted in the figures, the following drugs were incubated with cells for 30 min at 37 °C: Aurora-B-i ZM447439 2 µM [10 mM], PLK1-I BI2536 1 µM [10 mM] and Aurora-A-i MLN8237 [5 mM] was used at 250 and 500 nM in U251 and RPE1 cells, respectively. Drugs were resuspended in DMSO to the stock concentrations indicated in square brackets. BI2536 (HY-50698), MLN8237 (HY-10971) and ZM447439 (HY-10128) were all purchased from MedChemExpress. For western blotting, a 20-min pre-treatment with proteasome inhibitor (20 µM MG-132, MerckMillipore, 47490 [20 mM]) was required prior to the addition of DMSO control or kinase inhibitors. This prevented mitotic exit as a consequence of checkpoint override following Aurora-A and Aurora-B inhibitor addition.
Cells were lysed on ice for 30 min in lysis buffer (50 mM tris pH 8.0, 300 mM NaCl, 0.2%(v/v) NP-40, 10%(v/v) glycerol, protease inhibitor cocktail C, phosphatase inhibitor cocktail 3 (Sigma, 1:200 dilution), 100 nM okadaic acid (Enzo, ALX-350-003-C100)). Lysates were then centrifuged at 14,000 × g, 15 min, 4 °C, the supernatants were transferred to a fresh tube, and the pellet was discarded. Protein concentrations were measured by Bradford assay using Protein Assay Dye Reagent Concentrate (Bio-Rad Laboratories, 5000006). NuPage LDS sample buffer, supplemented with NuPAGE sample reducing agent (Invitrogen) were added prior to boiling for 10 min at 90 °C. […]
Densitometric quantification of western blots was also performed in ImageJ. Intensity was measured in a rectangular region of interest (ROI) around each band. […] An adjacent region was also measured to account for background intensity.

[3] = test system: PPP1CA-pT320, PRC1-pT481 and Histone-H3-pS10 in U251 cells; test: Western blot, mitotic phosphorylations (PPP1CA-pT320, PRC1-pT481, Histone-H3-pS10), asynchronous U251; assay type: cell-based, Homo sapiens; settings: asynchronous U251, siRNA 48 h
Description: Cells were lysed on ice for 30 min in lysis buffer (50 mM tris pH 8.0, 300 mM NaCl, 0.2%(v/v) NP-40, 10%(v/v) glycerol, protease inhibitor cocktail C, phosphatase inhibitor cocktail 3 (Sigma, 1:200 dilution), 100 nM okadaic acid (Enzo, ALX-350-003-C100)). Lysates were then centrifuged at 14,000 × g, 15 min, 4 °C, the supernatants were transferred to a fresh tube, and the pellet was discarded. Protein concentrations were measured by Bradford assay using Protein Assay Dye Reagent Concentrate (Bio-Rad Laboratories, 5000006). NuPage LDS sample buffer, supplemented with NuPAGE sample reducing agent (Invitrogen) were added prior to boiling for 10 min at 90 °C. Equal amounts of protein, between 8–20 µg/lane, were loaded into pre-cast 4–12% Bis-Tris gels (Invitrogen, NP0322BOX) and proteins separated in 1x MOPS buffer (Invitrogen) and transferred to nitrocellulose membrane (0.45 µM). Nitrocellulose was then blocked in 5% milk (wt/v) in TBS, 0.1% Tween (v/v) (TBST) for 1 h. Primary and secondary antibodies were diluted in 5% milk, TBST and incubated overnight at 4 °C or for 1 h at room temperature, respectively. Species-specific secondary antibodies conjugated to horseradish peroxidase (HRP) were used (anti-Mouse, Cytiva NA931V; anti-Rabbit, Cytiva NA934; anti-Sheep, Jackson 713-035-003). Membranes were washed for 1 h in TBST, changing the buffer five times, after each antibody incubation.
siRNA depletion was carried out by reverse transfection using oligofectamine (Thermo Scientific, 12252011) and lipofectamine RNAiMax (Thermo Scientific, 13778075), according to the manufacturer’s instructions, for U251 and RPE1 cells, respectively. For immunofluorescence, 1 × 10^5 cells were seeded in six-well plates and simultaneously transfected with 60 pmol siRNA duplex and 3 µl transfection reagent diluted in 200 µl Opti-MEM serum-free medium. Growth medium was added to a final volume of 2 ml. For western blotting, 1 × 10^6 cells were seeded in 10 cm dishes and transfected with 300 pmol siRNA duplex and 15 µl transfection reagent diluted in 1000 µl Opti-MEM. […]

[4] = target: FAM-CEP192 501–533 (human) (UniProt Q8TEP8); test: fluorescence polarisation; direct fluorescence anisotropy: Aurora-A diluted across the plate, 50 nM tracer FAM-CEP192 501–533; 25 mM HEPES pH 7.5, 150 mM NaCl, 2 mM DTT, 5 mM MgCl2, 0.01% Tween 20; 1 h at room temperature
[5] = target: T1, Aurora-A^CAKD (Aurora-A kinase domain, aa 122–403 C290A, C393A), unphosphorylated (human, UniProt O14965 122-403, C290A | C393A); test: fluorescence polarisation; competition: 10 μM unphosphorylated Aurora-A^CAKD preincubated with 100 nM FAM-TPX2 7-43, CEP192 competitor serially diluted; 25 mM HEPES pH 7.5, 150 mM NaCl, 2 mM DTT, 5 mM MgCl2, 0.01% Tween 20; settings: both partners purified
T1 construct: Aurora-A kinase domain, human, residues 122-403, variant lacking surface cysteines; also called Aurora-A 122–403 C290A C393A; unphosphorylated Aurora-A^CAKD; source: E. coli RIL, co-expressed with lambda phosphatase, purified (HisTrap, TEV cleavage, SEC); not shown: His6, N-terminal, cleaved
T1 sequence (looked up): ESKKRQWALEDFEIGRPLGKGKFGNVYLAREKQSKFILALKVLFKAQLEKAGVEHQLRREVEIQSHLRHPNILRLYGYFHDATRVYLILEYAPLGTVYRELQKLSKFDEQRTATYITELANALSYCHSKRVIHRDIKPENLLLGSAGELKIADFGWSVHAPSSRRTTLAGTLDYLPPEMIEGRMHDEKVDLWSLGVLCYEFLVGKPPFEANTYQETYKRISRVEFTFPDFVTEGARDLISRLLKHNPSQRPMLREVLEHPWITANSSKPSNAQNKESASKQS

[6] = target: T2, unphosphorylated Aurora-A CAKD (Homo sapiens, UniProt O14965, C290A/C393A); test: Fluorescence anisotropy competition with FAM-TPX2 7-43; assay type: binding; settings: competition with 100 nM FAM-TPX2 7-43, 10 μM unphosphorylated Aurora-A CAKD, n = 3 (Appendix Fig. S4E)
T2 construct: 10 μM Aurora-A kinase domain (phosphorylated or unphosphorylated C290A C393A 122–403); His (N, cleaved yes); made in house; host or cells: E. coli RIL, co-expressed with lambda phosphatase
T2 sequence (O14965 122-403 C290A/C393A): T1 sequence (looked up)
Description: Assays were performed in 25 mM HEPES pH 7.5, 150 mM NaCl, 2 mM DTT, 5 mM MgCl2, 0.01% Tween 20. For CEP192 and TPX2 competition assays 10 μM Aurora-A kinase domain (phosphorylated or unphosphorylated C290A C393A 122–403) was preincubated on ice with 100 nM FAM-TPX2 7-43 or 100 nM FAM-CEP192 501–533. For TACC3 competition, due to weaker binding, 25 μM Aurora-A kinase domain (phosphorylated or unphosphorylated C290A C393A 122–403) was preincubated with 100 nM FAM-TACC3 522-536. Serial dilutions of competitor (CEP192) were performed in triplicate into a low volume 384-well black plate, before the premixed Aurora-A and tracer were added. A control row included no tracer. Plates were left incubating for 1 h at room temperature before the fluorescence anisotropy was measured using a HIDEX plate reader, with excitation at 485 nm and emission at 535 nm. For direct binding experiments, the assay was performed as above, but the Aurora-A (122–403 C290A C393A or point mutants) was diluted across the plate from high to low concentration, before the addition of 50 nM tracer (FAM-CEP192 501–533) to three replicate rows. Buffer only was added to the control row.
Fluorescence anisotropy data were processed using Microsoft Excel to calculate intensity and anisotropy using the equation listed in (Yeo et al, [2013]). The IC50 and Kd values were calculated using Origin (OriginLab) where the data fitted to a sigmoid and are summarised in Appendix Table S3.

[7] = target: T1, Aurora-A^CAKD (Aurora-A kinase domain, …); test: fluorescence polarisation; competition: 25 μM Aurora-A kinase domain preincubated with 100 nM FAM-TACC3 522-536, CEP192 competitor serially diluted; 25 mM HEPES pH 7.5, 150 mM NaCl, 2 mM DTT, 5 mM MgCl2, 0.01% Tween 20; settings: both partners purified
[8] = target: T3, Aurora-A^M3KD (Aurora-A 122–403 C290A C393A D274N) (human, UniProt O14965 122-403, D274N | C290A | C393A); test: ITC; CEP192 442–533 titrated into Aurora-A kinase domain (by the legend); 25 °C; 20 mM tris pH 7.5, 200 mM NaCl, 10% glycerol, 5 mM MgCl2; two repeats; settings: both partners purified
T3 construct: Aurora-A kinase domain, human, residues 122-403; also called Aurora-A kinase domain (122–403 C290A C393A D274N); source: E. coli, purified (HisTrap, TEV cleavage, SEC); not shown: His6, N-terminal, cleaved
T3 sequence (looked up): T1 sequence (looked up) with D153N

[9] = target: T4, phosphorylated Aurora-A^CAKD (Aurora-A 122–403 C290A C393A, not co-expressed with lambda phosphatase) (human, UniProt O14965 122-403, C290A | C393A, phosphorylated (sites of this preparation not printed in the text shown)); test: cell-based or functional assay
T4 sequence (looked up): T1 sequence (looked up)

IC50 [5]: 4.2 µM
IC50 [6]: 3.33 µM
IC50 [7]: 5.7 µM
Kd [8]: 72 nM
stoichiometry N [8]: 0.67
ADP-Glo, 10 nM phosphorylated Aurora-A^CAKD with kemptide: IC50 of partial inhibition of kinase activity [9]: 32 nM
B1: human CEP192 442–533 (domain or fragment, UniProt Q8TEP8 442-533, looked up)
chain: IWSPTCERRTCECHESIEKNKDKTDLPQSVVYQNEEGRWVTDLAYYTSFNSKQNLNVSLSDEMNEDFRSGSEAFDLIAQDEEEFNKEHQFIQ
notes: Codon-optimised template from GenScript (CEP192 1-1000); source: E. coli B834 RIL, purified (HisTrap, TEV cleavage, SEC); 15N- or 15N/13C-labelled in Rosetta E. coli for NMR; not shown: His6, N-terminal, cleaved; SUMO, N-terminal, cleaved

IC50 [5]: 19.9 µM
ADP-Glo, 10 nM phosphorylated Aurora-A^CAKD with kemptide: IC50 of inhibition of kinase activity [9]: 220 nM
B2: human CEP192 468–533 L484D (domain or fragment, UniProt Q8TEP8 468-533, looked up)
chain: PQSVVYQNEEGRWVTDDAYYTSFNSKQNLNVSLSDEMNEDFRSGSEAFDLIAQDEEEFNKEHQFIQ
notes: source: E. coli B834 RIL, purified (HisTrap, TEV cleavage, SEC); not shown: His6, N-terminal, cleaved; SUMO, N-terminal, cleaved

The next lines start with the molecule.

Molecule: TACC3 519-563: TACC3 fragment, literature affinity (ELKEESFRDPAEVLGTGAEVDYLEQFGTSSFKESALRKQSLYLKF; UniProt Q9Y6A5 519-563, looked up, fragment)
Kd [1]: ~6 µM

Molecule: 5′-GGAUAUGGUUGAUCCUAUAtt-3′ [siBora]
activation loop phosphorylation (pT288) of Aurora-A in mitotic cell lysates [2]: no discernible effect
mitotic phosphorylations (PPP1CA-pT320, PRC1-pT481, Histone-H3-pS10) [3]: increased levels of mitotic phosphorylations

Molecule: Aurora-A^KD R205A (Aurora-A 122–403 R205A) (from UniProt O14965 122-403) (domain or fragment)
Kd [4]: > 5 µM
